{"source": "patent US20230392126A1", "about": "“TISSUE ORGANOIDS” (priority 2016, published 2023)", "key": {"[1]": {"tested_on": "human epidermal keratinocytes", "test": "Cell proliferation and differentiation of engineered human epidermal cells in vitro", "assay_type": "cell-based", "experimental": "Primary human neonatal epidermal keratinocytes were obtained from Thermo Fischer® (C0015C), and cultured with Epilife® medium (Thermo Fischer, M-EPICF-500) with manufacturer's recommended procedures. Calcium shift was performed to induce differentiation of primary keratinocytes by increasing the calcium concentration in culture media to 1.5 mM.\nPropidium iodide (PI) staining followed by flow cytometry were used to determine the effect of cell cycle profiles. Mouse and human epidermal cells were cultured in two 6 cm cell culture dish for 24 hours, respectively. Cells were trypsinized, and 1×10^5 cells from each dish were collected, followed by one PBS wash. […] After staining, the cells were analyzed immediately using flow cytometer BD FACSCanto™ II (BD Biosciences, San Jose, CA) with an excitation wavelength at 488 nm and emission at 585 nm. DNA content and histograms of cell cycle distribution were analyzed using FlowJo™ software, version 10 (FLOWJO LLC, OR).\nWestern blotting was performed as described previously (Blanpain et al.). […] Visualization and quantification was carried out with the LI-COR Odyssey® scanner and software (LI-COR Biosciences).\nPropidium iodide (PI) staining followed by flow cytometry were used to determine the effect of cell cycle profiles. […] DNA content and histograms of cell cycle distribution were analyzed using FlowJo™ software, version 10 (FLOWJO LLC, OR). […]"}, "[2]": {"test": "Intraperitoneal insulin tolerance test (ITT) in grafted mice", "assay_type": "in vivo, mouse", "details": "vs control mice or GLP1 mice without doxycycline", "experimental": "For glucose and insulin tolerance tests, an intraperitoneal glucose tolerance test (IPGTT) was performed on mice fed an HFD for 10 weeks. Mice were fasted for 6 h before the test. Animals were injected (1 g/kg glucose/body weight, i.p.) with glucose dissolved in saline, and blood glucose was measured at 0, 30, 60 and 90 min using glucose test strips and glucose meters. An intraperitoneal insulin tolerance test was carried out 1 week after IPGTT. Mice were fasted for 4 h and injected (2 U/kg, i.p.) with insulin purchased from Sigma (St. Louis, MO). Blood glucose levels were determined thereafter at 0, 30, 60 and 90 min.\nTo examine glucose homeostasis, IPGTT (intraperitoneal glucose tolerance test) and ITT (insulin tolerance test) were performed."}, "[3]": {"test": "GLP1 level in blood by ELISA, nude mice grafted with human skin organoids", "assay_type": "in vivo, mouse", "details": "human GLP1-expressing grafts, doxycycline food", "excerpt": "The engineered cells stratified and formed skin organoids in vitro, which were transplanted to nude hosts (FIG. 13G-H)."}, "[4]": {"test": "Stability and tolerance of transplanted skin organoids in immunocompetent hosts", "assay_type": "in vivo, mouse", "details": "CD1 hosts", "excerpt": "For grafting with skin organoids, CD1 (isogenic mouse keratinocyte transplantation) males or Nude (human keratinocyte transplantation) females with the ages of 6-8 weeks were anesthetized. A silicone chamber bottom with the interior diameter of 0.8 cm and the exterior diameter of 1.5 cm was implanted on its shaved dorsal mid-line skin, which was used to hold the skin graft. A chamber cap was installed to seal the chamber right after a piece of graft was implanted. About one week later, the chamber cap was removed to expose the graft to air. A single dose of 0.2 mg α-CD4 (GK1.5) and 0.2 mg α-CD8 (2.43.1) antibodies was administered intraperitoneally for skin grafting.\nOptical imaging was performed in the integrated small animal imaging research resource (iSAIRR) at the University of Chicago. Bioluminescence images were acquired on an IVIS Spectrum (Caliper Life Sciences®, Alameda, CA) after animal was injected with luciferin (100 mg/kg). […]\nGrafted cells in immunocompetent hosts readily expressed exogenous genes, such as Luciferase and Histone H2B-RFP (FIG. 1B-D), which were transduced to the cells with lentivirus. […] Importantly, the tissue organoid with expression of exogenous gene, such as Luciferase and H2B-RFP, was stable in vivo for more than 5 months in immunocompetent hosts, as determined by intravital bioluminescence imaging and tissue histology. […]"}}}
{"substance": "GLP1", "values": [{"measurement": "effect of expression on cell proliferation / differentiation in vitro", "setting": "[1]", "value": "did not significantly change cell proliferation"}, {"measurement": "insulin resistance", "setting": "[2]", "value": "significantly reduced insulin resistance"}, {"measurement": "GLP1 in the blood", "setting": "[3]", "value": "significant secretion of GLP1 was detected in the blood"}, {"measurement": "rejection of skin grafts after transplantation", "setting": "[4]", "value": "No significant rejection of the skin grafts has been observed"}]}
